Source: article PMC12102759 (2025)

B1: AMOTL2 peptide 66-81 (Angiomotin-like protein 2), 16-mer library wild type / TNKS ANK (TNKS 12 ANK repeats, residues 174-649) (parent complex)
chain 1: LQQATRQEPQGQEHQG
chain 2: TGVPAVSGALRELLEACRNGDVSRVKRLVDAANVNAKDMAGRKSSPLHFAAGFGRKDVVEHLLQMGANVHARDDGGLIPLHNACSFGHAEVVSLLLCQGADPNARDNWNYTPLHEAAIKGKIDVCIVLLQHGADPNIRNTDGKSALDLADPSAKAVLTGEYKKDELLEAARSGNEEKLMALLTPLNVNCHASDGRKSTPLHLAAGYNRVRIVQLLLQHGADVHAKDKGGLVPLHNACSYGHYEVTELLLKHGACVNAMDLWQFTPLHEAASKNRVEVCSLLLSHGADPTLVNCHGKSAVDMAPTPELRERLTYEFKGHSLLQAAREADLAKVKKTLALEIINFKQPQSHETALHCAVASLHPKRKQVTELLLRKGANVNEKNKDFMTPLHVAAERAHNDVMEVLHKHGAKMNALDTLGQTALHRAALAGHLQTCRLLLSYGSDPSIISLQGFTAAQMGNEAVQQILSESTPIRTSD

Variants of: B1
Assay: proteomic peptide phage display deep mutational scan (ProP-PD DMS): M13 P8 16-mer library selected against immobilised GST-tagged bait for four days (rounds), NGS of the eluted pools per day and pseudo-replica; bait immobilised on MaxiSorp plates (10 µg), library pre-cleared on GST, 2 h binding at 4 °C, five washes; one round per day, days 1-4; value from days 2 and 3
In the case of chain 1 E8M, the screen value is reported as 0.000135 average fractional NGS count over selection days 2 and 3 (reads of this peptide / all reads for the bait, averaged over ….
For chain 1 E8L, the screen value was 0.000201 average fractional NGS count over selection days 2 and 3 (reads of this peptide / all reads for the bait, averaged over ….
In the case of chain 1 E8S, the screen value is reported as 0.000226 average fractional NGS count over selection days 2 and 3 (reads of this peptide / all reads for the bait, averaged over ….
chain 1 E8A was tested, and the screen value was 0.000174 average fractional NGS count over selection days 2 and 3 (reads of this peptide / all reads for the bait, averaged over ….
In the case of chain 1 E8F, the screen value is reported as 0.00124 average fractional NGS count over selection days 2 and 3 (reads of this peptide / all reads for the bait, averaged over ….
With chain 1 E8T the screen value was 0.00026 average fractional NGS count over selection days 2 and 3 (reads of this peptide / all reads for the bait, averaged over ….
In the case of chain 1 E8V, the screen value is reported as 0.000436 average fractional NGS count over selection days 2 and 3 (reads of this peptide / all reads for the bait, averaged over ….
For chain 1 E8D, the screen value was 0.000313 average fractional NGS count over selection days 2 and 3 (reads of this peptide / all reads for the bait, averaged over ….
chain 1 E8Q was tested, and the screen value was 0.000434 average fractional NGS count over selection days 2 and 3 (reads of this peptide / all reads for the bait, averaged over ….
In the case of chain 1 E8W, the screen value is reported as 0.000174 average fractional NGS count over selection days 2 and 3 (reads of this peptide / all reads for the bait, averaged over ….
For chain 1 E8P, the screen value was 0.00018 average fractional NGS count over selection days 2 and 3 (reads of this peptide / all reads for the bait, averaged over ….
chain 1 E8H was tested, and the screen value was 0.000322 average fractional NGS count over selection days 2 and 3 (reads of this peptide / all reads for the bait, averaged over ….
For chain 1 Q2H, the screen value was 0.00198 average fractional NGS count over selection days 2 and 3 (reads of this peptide / all reads for the bait, averaged over ….
chain 1 Q2S was tested, and the screen value was 0.00082 average fractional NGS count over selection days 2 and 3 (reads of this peptide / all reads for the bait, averaged over ….
With chain 1 Q2I the screen value was 0.000122 average fractional NGS count over selection days 2 and 3 (reads of this peptide / all reads for the bait, averaged over ….
For chain 1 Q2E, the screen value was 0.00238 average fractional NGS count over selection days 2 and 3 (reads of this peptide / all reads for the bait, averaged over ….
For chain 1 Q2N, the screen value was 0.000675 average fractional NGS count over selection days 2 and 3 (reads of this peptide / all reads for the bait, averaged over ….
chain 1 Q2D was tested, and the screen value was 0.000375 average fractional NGS count over selection days 2 and 3 (reads of this peptide / all reads for the bait, averaged over ….
For chain 1 Q2T, the screen value was 0.00025 average fractional NGS count over selection days 2 and 3 (reads of this peptide / all reads for the bait, averaged over ….
For chain 1 Q2Y, the screen value was 0.000109 average fractional NGS count over selection days 2 and 3 (reads of this peptide / all reads for the bait, averaged over ….
With chain 1 Q2K the screen value was 0.000265 average fractional NGS count over selection days 2 and 3 (reads of this peptide / all reads for the bait, averaged over ….
With chain 1 Q2M the screen value was 0.000757 average fractional NGS count over selection days 2 and 3 (reads of this peptide / all reads for the bait, averaged over ….
For chain 1 Q2L, the screen value was 0.00083 average fractional NGS count over selection days 2 and 3 (reads of this peptide / all reads for the bait, averaged over ….
In the case of chain 1 Q2G, the screen value is reported as 0.00015 average fractional NGS count over selection days 2 and 3 (reads of this peptide / all reads for the bait, averaged over ….
For chain 1 Q2A, the screen value was 0.000379 average fractional NGS count over selection days 2 and 3 (reads of this peptide / all reads for the bait, averaged over ….
In the case of chain 1 Q2P, the screen value is reported as 0.000458 average fractional NGS count over selection days 2 and 3 (reads of this peptide / all reads for the bait, averaged over ….
For chain 1 Q2V, the screen value was 0.000551 average fractional NGS count over selection days 2 and 3 (reads of this peptide / all reads for the bait, averaged over ….
chain 1 Q15E was tested, and the screen value was 0.000569 average fractional NGS count over selection days 2 and 3 (reads of this peptide / all reads for the bait, averaged over ….
In the case of chain 1 Q15S, the screen value is reported as 0.00112 average fractional NGS count over selection days 2 and 3 (reads of this peptide / all reads for the bait, averaged over ….
With chain 1 Q15T the screen value was 0.000883 average fractional NGS count over selection days 2 and 3 (reads of this peptide / all reads for the bait, averaged over ….
In the case of chain 1 Q15G, the screen value is reported as 0.000723 average fractional NGS count over selection days 2 and 3 (reads of this peptide / all reads for the bait, averaged over ….
In the case of chain 1 Q15N, the screen value is reported as 0.00022 average fractional NGS count over selection days 2 and 3 (reads of this peptide / all reads for the bait, averaged over ….
With chain 1 Q15P the screen value was 0.000799 average fractional NGS count over selection days 2 and 3 (reads of this peptide / all reads for the bait, averaged over ….
For chain 1 Q15I, the screen value was 0.00255 average fractional NGS count over selection days 2 and 3 (reads of this peptide / all reads for the bait, averaged over ….
chain 1 Q15D was tested, and the screen value was 0.000198 average fractional NGS count over selection days 2 and 3 (reads of this peptide / all reads for the bait, averaged over ….
In the case of chain 1 Q15V, the screen value is reported as 0.000269 average fractional NGS count over selection days 2 and 3 (reads of this peptide / all reads for the bait, averaged over ….
For chain 1 Q15M, the screen value was 0.00112 average fractional NGS count over selection days 2 and 3 (reads of this peptide / all reads for the bait, averaged over ….
With chain 1 Q15W the screen value was 0.000288 average fractional NGS count over selection days 2 and 3 (reads of this peptide / all reads for the bait, averaged over ….
chain 1 Q15Y was tested, and the screen value was 0.00994 average fractional NGS count over selection days 2 and 3 (reads of this peptide / all reads for the bait, averaged over ….
In the case of chain 1 Q15A, the screen value is reported as 0.00403 average fractional NGS count over selection days 2 and 3 (reads of this peptide / all reads for the bait, averaged over ….
With chain 1 Q15L the screen value was 0.0017 average fractional NGS count over selection days 2 and 3 (reads of this peptide / all reads for the bait, averaged over ….
In the case of chain 1 Q15H, the screen value is reported as 0.00187 average fractional NGS count over selection days 2 and 3 (reads of this peptide / all reads for the bait, averaged over ….
For chain 1 E13M, the screen value was 0.000514 average fractional NGS count over selection days 2 and 3 (reads of this peptide / all reads for the bait, averaged over ….
In the case of chain 1 E13L, the screen value is reported as 0.000144 average fractional NGS count over selection days 2 and 3 (reads of this peptide / all reads for the bait, averaged over ….
In the case of chain 1 E13V, the screen value is reported as 0.00131 average fractional NGS count over selection days 2 and 3 (reads of this peptide / all reads for the bait, averaged over ….
In the case of chain 1 E13Q, the screen value is reported as 0.000235 average fractional NGS count over selection days 2 and 3 (reads of this peptide / all reads for the bait, averaged over ….
For chain 1 E13A, the screen value was 0.000224 average fractional NGS count over selection days 2 and 3 (reads of this peptide / all reads for the bait, averaged over ….
With chain 1 E13H the screen value was 0.000694 average fractional NGS count over selection days 2 and 3 (reads of this peptide / all reads for the bait, averaged over ….
With chain 1 E13I the screen value was 0.000226 average fractional NGS count over selection days 2 and 3 (reads of this peptide / all reads for the bait, averaged over ….
chain 1 E13S was tested, and the screen value was 0.000101 average fractional NGS count over selection days 2 and 3 (reads of this peptide / all reads for the bait, averaged over ….
For chain 1 A4D, the screen value was 0.000175 average fractional NGS count over selection days 2 and 3 (reads of this peptide / all reads for the bait, averaged over ….
chain 1 A4W was tested, and the screen value was 0.000419 average fractional NGS count over selection days 2 and 3 (reads of this peptide / all reads for the bait, averaged over ….
With chain 1 A4S the screen value was 0.000138 average fractional NGS count over selection days 2 and 3 (reads of this peptide / all reads for the bait, averaged over ….
For chain 1 A4H, the screen value was 0.000353 average fractional NGS count over selection days 2 and 3 (reads of this peptide / all reads for the bait, averaged over ….
For chain 1 A4G, the screen value was 0.00149 average fractional NGS count over selection days 2 and 3 (reads of this peptide / all reads for the bait, averaged over ….
With chain 1 A4V the screen value was 0.000321 average fractional NGS count over selection days 2 and 3 (reads of this peptide / all reads for the bait, averaged over ….
With chain 1 A4F the screen value was 0.000957 average fractional NGS count over selection days 2 and 3 (reads of this peptide / all reads for the bait, averaged over ….
With chain 1 A4N the screen value was 0.000378 average fractional NGS count over selection days 2 and 3 (reads of this peptide / all reads for the bait, averaged over ….
In the case of chain 1 A4Y, the screen value is reported as 0.00172 average fractional NGS count over selection days 2 and 3 (reads of this peptide / all reads for the bait, averaged over ….
chain 1 A4Q was tested, and the screen value was 0.00114 average fractional NGS count over selection days 2 and 3 (reads of this peptide / all reads for the bait, averaged over ….
chain 1 A4R was tested, and the screen value was 0.000178 average fractional NGS count over selection days 2 and 3 (reads of this peptide / all reads for the bait, averaged over ….
In the case of chain 1 A4T, the screen value is reported as 0.000212 average fractional NGS count over selection days 2 and 3 (reads of this peptide / all reads for the bait, averaged over ….
For chain 1 A4M, the screen value was 0.00014 average fractional NGS count over selection days 2 and 3 (reads of this peptide / all reads for the bait, averaged over ….
chain 1 Q7Y was tested, and the screen value was 0.000137 average fractional NGS count over selection days 2 and 3 (reads of this peptide / all reads for the bait, averaged over ….
With chain 1 Q7H the screen value was 0.00159 average fractional NGS count over selection days 2 and 3 (reads of this peptide / all reads for the bait, averaged over ….
chain 1 Q7P was tested, and the screen value was 0.000611 average fractional NGS count over selection days 2 and 3 (reads of this peptide / all reads for the bait, averaged over ….
For chain 1 Q7N, the screen value was 0.000208 average fractional NGS count over selection days 2 and 3 (reads of this peptide / all reads for the bait, averaged over ….
With chain 1 Q7M the screen value was 0.00184 average fractional NGS count over selection days 2 and 3 (reads of this peptide / all reads for the bait, averaged over ….
In the case of chain 1 Q7L, the screen value is reported as 0.00305 average fractional NGS count over selection days 2 and 3 (reads of this peptide / all reads for the bait, averaged over ….
chain 1 Q7W was tested, and the screen value was 0.000185 average fractional NGS count over selection days 2 and 3 (reads of this peptide / all reads for the bait, averaged over ….
In the case of chain 1 Q7F, the screen value is reported as 0.000322 average fractional NGS count over selection days 2 and 3 (reads of this peptide / all reads for the bait, averaged over ….
chain 1 Q7A was tested, and the screen value was 0.000124 average fractional NGS count over selection days 2 and 3 (reads of this peptide / all reads for the bait, averaged over ….
chain 1 Q7T was tested, and the screen value was 0.000305 average fractional NGS count over selection days 2 and 3 (reads of this peptide / all reads for the bait, averaged over ….
For chain 1 T5I, the screen value was 0.000401 average fractional NGS count over selection days 2 and 3 (reads of this peptide / all reads for the bait, averaged over ….
For chain 1 T5N, the screen value was 0.000716 average fractional NGS count over selection days 2 and 3 (reads of this peptide / all reads for the bait, averaged over ….
